The text below walks through data of patent publication US20230250176A1.

For test [1], the target named is purified recombinant human FcγRIIa H131 (human) (UniProt P12318). The experiment in a line: SPR (Biacore 8K), 25 C.
Test [2] concerns the target purified recombinant human FcγRI (human) (UniProt P12314). As to the kind of experiment: SPR (Biacore 8K), 25 C.

pKd: −log10 of the molar value.

Chain of purified recombinant human FcγRIIa H131 (human) (P12318 36-218 limits assumed): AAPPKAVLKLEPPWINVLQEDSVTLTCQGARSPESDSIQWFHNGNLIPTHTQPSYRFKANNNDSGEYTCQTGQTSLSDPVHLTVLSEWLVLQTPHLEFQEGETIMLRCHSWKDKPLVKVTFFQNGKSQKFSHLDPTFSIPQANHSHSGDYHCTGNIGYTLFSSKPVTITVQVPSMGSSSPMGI

With panitumumab (antibody), the pKd in test [1] was 5.96.
For cetuximab (antibody), the negative logarithm of the Kd (pKd) in test [2] is 8.14.
